Article PMC11993163, “Structure-function studies of a nucleoplasmin isoform from Plasmodium falciparum” (The Journal of Biological Chemistry, 2025)

B1: PfNPM NTD (Plasmodium falciparum nucleoplasmin N-terminal core domain, residues 1-98) (domain or fragment, UniProt C0H4U4 1-98, looked up)
chain: MFYGKVVKPDETVVPEVKDGYSVIHLSRACLNNPEHEGKIYVQVEDGNGCYNICCLQKNVCEDTPLDIFLMLDNDVKIKTSGSSNEVHIVGYYEVSFG
notes: PfNPM, nucleoplasmin isoform of Plasmodium falciparum, PlasmoDB PF3D7_0813300, UniProtKB C0H4U4, residues 1-98 of the 315-residue full length; Cloned into pET28a(+) between NcoI and XhoI with a noncleavable C-terminal hexa-histidine tag; Pentamer by crystal structure, SV-AUC and SAXS; also called PfNPM NTD (1-98); not shown: His6, C-terminal, kept
B2: PfNPM A3 (residues 1-170, up to A3 acidic tract) (domain or fragment, Plasmodium falciparum, UniProt C0H4U4 1-170, looked up)
chain: MFYGKVVKPDETVVPEVKDGYSVIHLSRACLNNPEHEGKIYVQVEDGNGCYNICCLQKNVCEDTPLDIFLMLDNDVKIKTSGSSNEVHIVGYYEVSFGQDNLDEDEDEFEDEFDNDEVRMLTKKNTLKNSLSNGISKRKKNLENNEDDETNVGRNDEDDDDEDDEDDEDE
notes: PfNPM, nucleoplasmin isoform of Plasmodium falciparum, PlasmoDB PF3D7_0813300, UniProtKB C0H4U4, residues 1-170 (NTD and acidic tracts A1 to A3); pET28a(+) NcoI/XhoI, noncleavable C-terminal hexa-histidine tag; Pentamer by SV-AUC, SAXS and cryo-EM 2D class averages; also called PfNPM (1-170); not shown: His6, C-terminal, kept
B3: PfNPM A1 (residues 1-110, up to A1 acidic tract) (domain or fragment, Plasmodium falciparum, UniProt C0H4U4 1-110, looked up)
chain: MFYGKVVKPDETVVPEVKDGYSVIHLSRACLNNPEHEGKIYVQVEDGNGCYNICCLQKNVCEDTPLDIFLMLDNDVKIKTSGSSNEVHIVGYYEVSFGQDNLDEDEDEFE
notes: PfNPM, nucleoplasmin isoform of Plasmodium falciparum, PlasmoDB PF3D7_0813300, UniProtKB C0H4U4, residues 1-110 (NTD and A1 acidic tract); pET28a(+) NcoI/XhoI, noncleavable C-terminal hexa-histidine tag; Pentamer by SV-AUC and SAXS; also called PfNPM (1-110); not shown: His6, C-terminal, kept

Columns and labels:
[1] = molecular target: the molecule itself; test: crystal structure; PfNPM NTD at 57 mg/ml, 0.2 M sodium malonate pH 5.0, 20% PEG3350; 3.25 Å, space group P3(1)21, five chains in the asymmetric unit
[2] = molecular target: the molecule itself; test: AUC; sedimentation velocity, Optima AUC, absorbance at 280 nm 0.2-0.5, continuous size distribution (SEDFIT); PfNPM proteins alone and their histone complexes
[3] = molecular target: T1, assembled H2A/H2B dimer (UniProt P06897 1-130; P02281 1-126); test: AUC; conditions: both partners purified
[4] = molecular target: T2, assembled H3/H4 tetramer (UniProt P84233 1-136; P62799 1-103); test: AUC; conditions: both partners purified
T2 construct: core histone H4, codon-optimized construct in pET21a(+), gift of Dr Curtis A. Davey, expressed without a fusion tag; the species of the histones is told nowhere; copies: 2 + 2

[5] = molecular target: T1, assembled H2A/H2B dimer; test: ITC; conditions: both partners purified
[6] = molecular target: T2, assembled H3/H4 tetramer; test: ITC; conditions: both partners purified

| Binder | stoichiometry N [1] | stoichiometry N [2] | stoichiometry N [3] | stoichiometry N [4] | Kd [5] [nM] | stoichiometry N [5] | Kd [6] [nM] | stoichiometry N [6] |
| --- | --- | --- | --- | --- | --- | --- | --- | --- |
| B1 | 5 | – | – | – | – | – | – | – |
| B2 | – | 5 | 1 PfNPM pentamer : H2A/H2B dimer | 1 PfNPM pentamer : H3/H4 tetramer | 1000 ± 68.2 | 1 | 38.9 ± 2.2 | 1 |
| B3 | – | 5 | 1 PfNPM pentamer : H2A/H2B dimer | 1 PfNPM pentamer : H3/H4 tetramer | 1010 ± 68.6 | 1 | 58.5 ± 1.76 | 1 |
